From publication PMC4338613

Columns and labels:
Experiment in all cases: co-IP
[1] = molecular target: LAP-tagged FUS/TLS P525L (human) (UniProt P35637)
[2] = molecular target: LAP-tagged FUS/TLS R495X (human) (UniProt P35637)
[3] = molecular target: LAP-tagged FUS/TLS R521G (human) (UniProt P35637)

Measured: fold reduction of association against wild-type FUS/TLS

Sm-B/D (components of Sm core)
5 fold: [1] | [2] | [3]
